Measurements: article PMC6435475, “Structural and functional characterisation of the entry point to pyocyanin biosynthesis in Pseudomonas aeruginosa defines a new 3-deoxy-D-arabino-heptulosonate 7-phosphate synthase subclass” (Bioscience Reports, 2018)

B1: PaeDAH7PS^PA1901 (3-deoxy-D-arabino-heptulosonate 7-phosphate synthase encoded by phzC, Pseudomonas aeruginosa PAO1) (enzyme)
chain: MDDLLQRVRRCEALQQPEWGDPSRLRDVQAYLRGSPALIRAGDILALRATLARVARGEALVVQCGDCAEDMDDHHAENVARKAAVLELLAGALRLAGRRPVIRVGRIAGQYAKPRSKPHEQVGEQTLPVYRGDMVNGREAHAEQRRADPQRILKGYAAARNIMRHLGWDAASGQEANASPVWTSHEMLLLDYELSMLREDEQRRVYLGSTHWPWIGERTRQVDGAHVALLAEVLNPVACKVGPEIGRDQLLALCERLDPRREPGRLTLIARMGAQKVGERLPPLVEAVRAAGHPVIWLSDPMHGNTIVAPCGNKTRLVRSIAEEVAAFRLAVSGSGGVAAGLHLETTPDDVTECVADSSGLHQVSRHYTSLCDPRLNPWQALSAVMAWSGAEAIPSATFPLETVA
notes: 3-deoxy-D-arabino-heptulosonate 7-phosphate synthase (type II DAH7PS) encoded by phzC, ORF PA1901 (duplicated as PA4212), Pseudomonas aeruginosa PAO1; the ORF was amplified from gDNA; residues up to 405 are named; measured mass of a single chain 44470 Da (calculated 44468 Da); Homodimer in solution at low concentration (AUC, SEC-SAXS); homotetramer in the crystal and at high concentration in …

Assays:
[1] = test system: C=C(OP(=O)(O)O)C(=O)O; assay: purified protein; conditions: E4P 150 μM, Co2+ 100 μM, pH 7.5, 37 °C
Description: (§1) initial-rate UV-Vis spectrophotometric assay on PaeDAH7PS^PA1901 (type II DAH7PS, phzC)

[2] = test system: O=C[C@H](O)[C@H](O)COP(=O)(O)O; assay: purified protein; conditions: PEP 150 μM, Co2+ 100 μM, pH 7.5, 37 °C
Description: as §1

[3] = molecular target: the molecule itself; assay: SEC-SAXS; injection concentration 8.0 mg/ml (180 uM; also 5.0 mg/ml), Superdex S200, 50 mM bis-tris propane pH 7.5, 100 uM cobalt chloride, 200 uM PEP, 5% glycerol, 293 K; elution peak deconvoluted into two Gaussian components (peaks A and B)
[4] = molecular target: the molecule itself; assay: crystal structure; microbatch crystallisation, protein 3-5 mg/ml (67-112 uM), 0.2 M sodium fluoride, 1 mM cobalt chloride, 1 mM PEP, 18% PEG 3350, 278 K; space group C222(1), two chains in the asymmetric unit, tetramer by a two-fold crystallographic symmetry operation

Molecule | Km [1] | kcat [1] | kcat/Km [1] | Km [2] | kcat [2] | kcat/Km [2] | stoichiometry N [3] | stoichiometry N [4]
PaeDAH7PS^PA1901 (type II DAH7PS, phzC) (Pseudomonas aeruginosa PAO1) | 17 ± 1 µM | 19.8 ± 0.4 s⁻¹ | 1.16e+06 ± 100000 M⁻¹ s⁻¹ | 16 ± 3 µM | 19.8 ± 0.4 s⁻¹ | 1.24e+06 ± 150000 M⁻¹ s⁻¹ | – | –
B1 | – | – | – | – | – | – | 2 | 4
